Changes are numbered by the printed parent chain. In names and notes the source's numbering stands.
B1: W262Q: CD19 variant (protein)
chain: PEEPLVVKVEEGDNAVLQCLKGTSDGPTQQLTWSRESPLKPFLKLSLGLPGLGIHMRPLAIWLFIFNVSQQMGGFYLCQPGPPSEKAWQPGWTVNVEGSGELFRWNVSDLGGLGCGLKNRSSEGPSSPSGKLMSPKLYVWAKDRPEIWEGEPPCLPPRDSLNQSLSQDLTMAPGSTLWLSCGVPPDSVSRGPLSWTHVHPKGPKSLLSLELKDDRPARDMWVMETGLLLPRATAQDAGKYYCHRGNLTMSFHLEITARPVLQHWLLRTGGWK
B2: W62E: CD19 variant (protein)
chain: B1 chain with W62E, Q262W
B3: L59E: CD19 variant (protein)
chain: B1 chain with L59E, Q262W
B4: W264A: CD19 variant (protein)
chain: B1 chain with Q262W, W264A
B5: G269L: CD19 variant (protein)
chain: B1 chain with Q262W, G269L
B6: V16W: CD19 variant (protein)
chain: B1 chain with V16W, Q262W
B7: F64V: CD19 variant (protein)
chain: B1 chain with F64V, Q262W
B8: L59G: CD19 variant (protein)
chain: B1 chain with L59G, Q262W
B9: W264D: CD19 variant (protein)
chain: B1 chain with Q262W, W264D
B10: A257R: CD19 variant (protein)
chain: B1 chain with A257R, Q262W
B11: L261K: CD19 variant (protein)
chain: B1 chain with L261K, Q262W
B12: A232V: CD19 variant (protein)
chain: B1 chain with A232V, Q262W
B13: G269I: CD19 variant (protein)
chain: B1 chain with Q262W, G269I
B14: R215W: CD19 variant (protein)
chain: B1 chain with R215W, Q262W
B15: K212S: CD19 variant (protein)
chain: B1 chain with K212S, Q262W
B16: R57G: CD19 variant (protein)
chain: B1 chain with R57G, Q262W
B17: W262D: CD19 variant (protein)
chain: B1 chain with Q262D
B18: V16F: CD19 variant (protein)
chain: B1 chain with V16F, Q262W
B19: W264N: CD19 variant (protein)
chain: B1 chain with Q262W, W264N
B20: W262H: CD19 variant (protein)
chain: B1 chain with Q262H
B21: I255V: CD19 variant (protein)
chain: B1 chain with I255V, Q262W
B22: W262G: CD19 variant (protein)
chain: B1 chain with Q262G
B23: V260S: CD19 variant (protein)
chain: B1 chain with V260S, Q262W
B24: W262K: CD19 variant (protein)
chain: B1 chain with Q262K
B25: Y240W: CD19 variant (protein)
chain: B1 chain with Y240W, Q262W
B26: L59S: CD19 variant (protein)
chain: B1 chain with L59S, Q262W
B27: L20G: CD19 variant (protein)
chain: B1 chain with L20G, Q262W
B28: G226S: CD19 variant (protein)
chain: B1 chain with G226S, Q262W
B29: F66R: CD19 variant (protein)
chain: B1 chain with F66R, Q262W
B30: K212A: CD19 variant (protein)
chain: B1 chain with K212A, Q262W
B31: A257K: CD19 variant (protein)
chain: B1 chain with A257K, Q262W
B32: F64G: CD19 variant (protein)
chain: B1 chain with F64G, Q262W
B33: W62T/F64V/F66P: CD19 variant (protein)
chain: B1 chain with W62T, F64V, F66P, Q262W
B34: W62E/F64R/F66P: CD19 variant (protein)
chain: B1 chain with W62E, F64R, F66P, Q262W
B35: W62E/F64W/F66R: CD19 variant (protein)
chain: B1 chain with W62E, F64W, F66R, Q262W
B36: W62A/F64R/F66L: CD19 variant (protein)
chain: B1 chain with W62A, F64R, F66L, Q262W
B37: E224G/G226E/L228I: CD19 variant (protein)
chain: B1 chain with E224G, G226E, L228I, Q262W
B38: W62T/F64R/F66Q: CD19 variant (protein)
chain: B1 chain with W62T, F64R, F66Q, Q262W
B39: E224G/G226R/L228F: CD19 variant (protein)
chain: B1 chain with E224G, G226R, L228F, Q262W
B40: E224G/G226D/L228V: CD19 variant (protein)
chain: B1 chain with E224G, G226D, L228V, Q262W
B41: W62E/F64V/F66V: CD19 variant (protein)
chain: B1 chain with W62E, F64V, F66V, Q262W
B42: W62W/F64S/F66S: CD19 variant (protein)
chain: B1 chain with F64S, F66S, Q262W
B43: W62S/F64R/F66S: CD19 variant (protein)
chain: B1 chain with W62S, F64R, F66S, Q262W
B44: W62Y/F64S/F66R: CD19 variant (protein)
chain: B1 chain with W62Y, F64S, F66R, Q262W
B45: W62D/F64L/F66P: CD19 variant (protein)
chain: B1 chain with W62D, F64L, F66P, Q262W
B46: W62E/F64E/F66V: CD19 variant (protein)
chain: B1 chain with W62E, F64E, F66V, Q262W
B47: L59N/I61V/L63L: CD19 variant (protein)
chain: B1 chain with L59N, I61V, Q262W
B48: W62R/F64V/F66R: CD19 variant (protein)
chain: B1 chain with W62R, F64V, F66R, Q262W

tested on: FMC63; test: CD19 variant binding to anti-CD19 antibody FMC63 (score); settings: Table 1A, CD19 single mutants (positions of SEQ ID NO:2)
Sequence (as listed by the source): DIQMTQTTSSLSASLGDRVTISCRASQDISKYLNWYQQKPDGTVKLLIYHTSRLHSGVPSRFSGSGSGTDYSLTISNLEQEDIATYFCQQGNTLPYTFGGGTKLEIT
Sequence (as listed by the source): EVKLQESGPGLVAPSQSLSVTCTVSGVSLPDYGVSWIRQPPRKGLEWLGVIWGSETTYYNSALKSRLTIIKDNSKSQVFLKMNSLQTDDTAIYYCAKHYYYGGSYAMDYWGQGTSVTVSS

| Molecule | FMC63 Binding Score |
| --- | --- |
| B1 | 6.8 ± .6 |
| B2 | 6.4 ± .7 |
| B3 | 6.3 ± .5 |
| B4 | 6.3 ± .5 |
| B5 | 6.1 ± .4 |
| B6 | 6.7 ± 1. |
| B7 | 6. ± .4 |
| B8 | 6.5 ± .3 |
| B9 | 6.2 ± .6 |
| B10 | 6.1 ± .5 |
| B11 | 6.2 ± .6 |
| B12 | 6.3 ± .2 |
| B13 | 6.7 ± .8 |
| B14 | 7.1 ± 1.1 |
| B15 | 6.8 ± .6 |
| B16 | 5.7 ± .2 |

| Molecule | FMC63 Binding Score |
| --- | --- |
| B17 | 8.3 ± .8 |
| B18 | 7. ± 1. |
| B19 | 9. ± 1.3 |
| B20 | 6.7 ± 1. |
| B21 | 6.4 ± .4 |
| B22 | 6.4 ± .2 |
| B23 | 5.8 ± .3 |
| B24 | 8.2 ± .7 |
| B25 | 6.3 ± .3 |
| B26 | 6.4 ± .4 |
| B27 | 5.7 ± .2 |
| B28 | 6.1 ± .4 |
| B29 | 6. ± .3 |
| B30 | 6.1 ± .6 |
| B31 | 6.1 ± .5 |
| B32 | 6. ± .2 |

same assay, conditions: Table 1B, CD19 triple mutants

| Molecule | FMC63 Binding Score |
| --- | --- |
| B33 | 16.6 ± 5.5 |
| B34 | 16.5 ± 5.5 |
| B35 | 14.2 ± 3.2 |
| B36 | 13.1 ± 2.3 |
| B37 | 14.3 ± 3.4 |
| B38 | 16.3 ± 5.5 |
| B39 | 12.8 ± 1.7 |
| B40 | 12. ± 1.2 |
| B41 | 13.4 ± 2.5 |
| B42 | 14. ± 3.2 |
| B43 | 13.2 ± 2.1 |
| B44 | 13.7 ± 3.2 |
| B45 | 16.3 ± 5.5 |
| B46 | 16.2 ± 5.5 |
| B47 | 13.9 ± 3.2 |
| B48 | 12.3 ± 1.6 |

— patent US20220387487A1, “COMPOSITIONS AND METHODS FOR TREATMENT OF CANCER” (Aleta Biotherapeutics Inc., priority 2019, published 2022)
